Substitutions are numbered along the chain they refer to. Where two headings read alike, the source gives them in different places.
B1: clone 1 (antibody, V domains shown)
VH: EVQLVESGGGLVKPGGSLRLSCAASGFTFSSYAMNWVRQAPGKGLEWVGTITTGGSYTYYADSVDGRFTISRDNAKNSLYLQMNSLRAEDTAVYYCARQDGNFLMDYWGQGTLVTVSS
VL: DVVMTQTPLSLPVTLGQPASISCKSSPSLLDSDGKTYLNWLQQRPGQSPKRLIYLVSKLDSGVPDRFTGSGSGTDFTLKISRVEAEDVGVYYCWQGTHFPFTFGQGTKVEIKR
B2: clone 7 (antibody, V domains shown)
VH: B1 VH
VL: B1 VL with S32V
B3: clone 10 (antibody, V domains shown)
VH: B1 VH with G49S, D65Q
VL: B1 VL with S32V
B4: clone 1001 (antibody, V domains shown)
VH: B1 VH with G49S
VL: B1 VL with P27Q, S32I
B5: clone 1021 (antibody, V domains shown)
VH: B1 VH with G49S, N102H
VL: B1 VL with P27Q, S32I
B6: clone 1024 (antibody, V domains shown)
VH: B1 VH with N35S, G49S
VL: B1 VL with P27Q, S32L
B7: clone 1104 (antibody, V domains shown)
VH: B1 VH with Y57H, D65Q
VL: B1 VL with P27Q, S32V
B8: clone 1216 (antibody, V domains shown)
VH: B1 VH with S31H, G49S, D65E, N102H
VL: B1 VL with P27Q, S32I, F99L
B9: clone 1224 (antibody, V domains shown)
VH: B1 VH with N35S, G49S
VL: B1 VL with P27Q, S32I
B10: clone 1234 (antibody, V domains shown)
VH: B1 VH with G49S, D65Q
VL: B1 VL with P27Q, S32I, K79E

Legend:
Assay in all cases: cell-based or functional assay
[1] = target: T1, recombinant human TFPI (tissue factor pathway inhibitor) (human, UniProt P10646 29-304)
[2] = target: T1, recombinant human TFPI (tissue factor …); remark: listed apart in the source
[3] = target: T1, recombinant human TFPI (tissue factor …); remark: listed apart in the source
[4] = target: T1, recombinant human TFPI (tissue factor …); remark: listed apart in the source

Binder | FXa assay % of FXa alone, 2.5 nM Ab, 10 nM TFPI [1] [%] | FXa assay % of FXa alone, 5 nM Ab, 10 nM TFPI [1] [%] | FXa assay % of FXa alone, 10 nM Ab, 10 nM TFPI [1] [%] | FXa assay % of FXa alone, 20 nM Ab, 10 nM TFPI [1] [%] | FXa assay OD, 2.5 nM Ab, 10 nM TFPI [1] | FXa assay OD, 5 nM Ab, 10 nM TFPI [1] | FXa assay OD, 10 nM Ab, 10 nM TFPI [1] | FXa assay OD, 20 nM Ab, 10 nM TFPI [1] | FXa assay % of FXa alone, 2.5 nM Ab, 10 nM TFPI [2] [%] | FXa assay % of FXa alone, 5 nM Ab, 10 nM TFPI [2] [%] | FXa assay % of FXa alone, 10 nM Ab, 10 nM TFPI [2] [%] | FXa assay % of FXa alone, 20 nM Ab, 10 nM TFPI [2] [%] | FXa assay OD, 2.5 nM Ab, 10 nM TFPI [2] | FXa assay OD, 5 nM Ab, 10 nM TFPI [2] | FXa assay OD, 10 nM Ab, 10 nM TFPI [2] | FXa assay OD, 20 nM Ab, 10 nM TFPI [2] | FXa assay % of FXa alone, 2.5 nM Ab, 10 nM TFPI [4] [%] | FXa assay % of FXa alone, 5 nM Ab, 10 nM TFPI [4] [%] | FXa assay % of FXa alone, 10 nM Ab, 10 nM TFPI [4] [%] | FXa assay % of FXa alone, 20 nM Ab, 10 nM TFPI [4] [%] | other results
B1 | 6.3 | 17.1 | 50.1 | 72 | 0.048 | 0.131 | 0.381 | 0.548 |  |  |  |  |  |  |  |  |  |  |  |  | 
B2 | 8.9 | 31 | 72.1 | 75.4 | 0.0675 | 0.236 | 0.549 | 0.574 |  |  |  |  |  |  |  |  |  |  |  |  | 
B3 | 9.6 | 5.1 | 11.8 | 38.4 | 0.073 | 0.0385 | 0.09 | 0.292 |  |  |  |  |  |  |  |  |  |  |  |  | 
B4 |  |  |  |  |  |  |  |  | 6.4 | 10.3 | 66.9 | 73.9 | 0.031 | 0.05 | 0.324 | 0.357 |  |  |  |  | 
B5 |  |  |  |  |  |  |  |  |  |  |  |  |  |  |  |  |  |  |  |  | FXa assay % of FXa alone, 2.5 nM Ab, 10 nM TFPI [3]: 4.7%; FXa assay % of FXa alone, 10 nM Ab, 10 nM TFPI [3]: 32.9%; FXa assay % of FXa alone, 20 nM Ab, 10 nM TFPI [3]: 78.7%; FXa assay OD, 2.5 nM Ab, 10 nM TFPI [3]: 0.034; FXa assay OD, 10 nM Ab, 10 nM TFPI [3]: 0.236; FXa assay OD, 20 nM Ab, 10 nM TFPI [3]: 0.566
B6 |  |  |  |  |  |  |  |  | 4.6 | 6.2 | 20.4 | 42.7 | 0.0225 | 0.03 | 0.0985 | 0.206 |  |  |  |  | 
B7 |  |  |  |  |  |  |  |  | 8.5 | 28.3 | 60 | 69.2 | 0.041 | 0.137 | 0.29 | 0.335 |  |  |  |  | 
B8 |  |  |  |  |  |  |  |  |  |  |  |  |  |  |  |  | 3.6 | 4 | 3.6 | 3.3 | 
B9 |  |  |  |  |  |  |  |  |  |  |  |  |  |  |  |  | 5.1 | 6.9 | 29 | 66.1 | FXa assay OD, 5 nM Ab, 10 nM TFPI [4]: 0.06; FXa assay OD, 10 nM Ab, 10 nM TFPI [4]: 0.252; FXa assay OD, 20 nM Ab, 10 nM TFPI [4]: 0.576
B10 |  |  |  |  |  |  |  |  |  |  |  |  |  |  |  |  | 3.8 | 3.6 | 4.5 | 4 | 
